Test results published in doi:10.1101/2025.01.14.633037.

Experiment: FRET or BRET; DAmFRET: mEos3.1 fusions expressed in S. cerevisiae, galactose induction 20 hr with 100 uM MG132, partial photoconversion of mEos3.1, flow cytometry; AmFRET between copies of the same protein against its intracellular concentration (approximately 2 to 200 uM)

Substance: MBP fused to mEos3.1 and poly-TA (28 residues, two continuous TA tracts of length 12)
- fold increase of Csat against poly-TA without the solubility tag: > 10 fold
